In patent publication US12247238B2, “Mogroside biocatalysis methods and products” (The Coca-Cola Company, priority 2019, dated 2025):

Experiment: β-galactosidase ONPG activity assay
Assay type: biochemical
Details: oNPG substrate, over 30 minutes
Experimental: Standard β-galactosidase assays were performed at room temperature using o-nitrophenyl-β-D-galactopyranoside (ONPG, Sigma) as a substrate in […] with detection of o-nitrophenol release at 420 nm (UV-Spectra Max Spectrophotometer, Molecular Devices, USA). A typical reaction contained 50 mM sodium citrate buffer pH 5.6, 10 mM magnesium chloride and 100 mM potassium chloride with 2 mM ONPG and the desired amount of enzyme (usually […]). Partially purified AoBG (Sigma G5160, USA) was used as a positive control at a final concentration of 1 U mL−1. Vmax was calculated using the SpectraMax Plus software (Molecular Devices, USA) and when required kinetics were determined by varying the concentration of substrate and kinetic determinants calculated using Hyper™ (J. S. Easterby, Liverpool University).
Cells expressing enzyme variants grown in buffered minimal medium were induced for 72 hr with 1% methanol (refreshed every 24 hr), the culture supernatant harvested and assayed for standard ONPG activity over 30 minutes and mogroside V activity at pH 5.6, 37° C. for 72 hrs. The resultant activity data (Table 2) identified E200 and D258 as the likely catalytic pair for acid/base and nucleophilic attack of mogroside V by the A. oryzae β-glucosidase enzyme.

| oNPG | Molecule |
| --- | --- |
| INACTIVE | E200A: A. oryzae β-galactosidase variant, E200A (protein, UniProt Q2UCU3 19-1005, looked up, variant E200A) Beta-galactosidase A: ASIKHRLNGFTILEHPDPAKRDLLQDIVTWDDKSLFINGERIMLFSGEVHPFRLPVPSLWLDIFHKIRALGFNCVSFYIDWALLEGKPGDYRAEGIFALEPFFDAAKEAGIYLIARPGSYINAEVSGGGFPGWLQRVNGTLRSSDEPFLKATDNYIANAAAAVAKAQITNGGPVILYQPENAYSGGCCGVKYPDADYMQYVMDQARKADIVVPFISNDASPSGHNAPGSGTGAVDIYGHDSYPLGFDCANPSVWPEGKLPDNFRTLHLEQSPSTPYSLLEFQAGAFDPWGGPGFEKCYALVNHEFSRVFYRNDLSFGVSTFNLYMTFGGTNWGNLGHPGGYTSYDYGSPITETRNVTREKYSDIKLLANFVKASPSYLTATPRNLTTGVYTDTSDLAVTPLIGDSPGSFFVVRHTDYSSQESTSYKLKLPTSAGNLTIPQLEGTLSLNGRDSKIHVVDYNVSGTNIIYSTAEVFTWKKFDGNKVLVLYGGPKEHHELAIASKSNVTIIEGSDSGIVSTRKGSSVIIGWDVSSTRRIVQVGDLRVFLLDRNSAYNYWVPELPTEGTSPGFSTSKTTASSIIVKAGYLLRGAHLDGADLHLTADFNATTPIEVIGAPTGAKNLFVNGEKASHTVDKNGIWSSEVKYAAPEIKLPGLKDLDWKYLDTLPEIKSSYDDSAWVSADLPKTKNTHRPLDTPTSLYSSDYGFHTGYLIYRGHFVANGKESEFFIRTQGGSAFGSSVWLNETYLGSWTGADYAMDGNSTYKLSQLESGKNYVITVVIDNLGLDENWTVGEETMKNPRGILSYKLSGQDASAITWKLTGNLGGEDYQDKVRGPLNEGGLYAERQGFHQPQPPSESWESGSPLEGLSKPGIGFYTAQFDLDLPKGWDVPLYFNFGNNTQAARAQLYVNGYQYGKFTGNVGPQTSFPVPEGILNYRGTNYVALSLWALESDGAKLGSFELSYTTPVLTGYGNVESPEQPKYEQRKGAY |
| INACTIVE | D258Q: A. oryzae β-galactosidase variant, D258Q (protein, UniProt Q2UCU3 19-1005, looked up, variant D258Q) Beta-galactosidase A: ASIKHRLNGFTILEHPDPAKRDLLQDIVTWDDKSLFINGERIMLFSGEVHPFRLPVPSLWLDIFHKIRALGFNCVSFYIDWALLEGKPGDYRAEGIFALEPFFDAAKEAGIYLIARPGSYINAEVSGGGFPGWLQRVNGTLRSSDEPFLKATDNYIANAAAAVAKAQITNGGPVILYQPENEYSGGCCGVKYPDADYMQYVMDQARKADIVVPFISNDASPSGHNAPGSGTGAVDIYGHQSYPLGFDCANPSVWPEGKLPDNFRTLHLEQSPSTPYSLLEFQAGAFDPWGGPGFEKCYALVNHEFSRVFYRNDLSFGVSTFNLYMTFGGTNWGNLGHPGGYTSYDYGSPITETRNVTREKYSDIKLLANFVKASPSYLTATPRNLTTGVYTDTSDLAVTPLIGDSPGSFFVVRHTDYSSQESTSYKLKLPTSAGNLTIPQLEGTLSLNGRDSKIHVVDYNVSGTNIIYSTAEVFTWKKFDGNKVLVLYGGPKEHHELAIASKSNVTIIEGSDSGIVSTRKGSSVIIGWDVSSTRRIVQVGDLRVFLLDRNSAYNYWVPELPTEGTSPGFSTSKTTASSIIVKAGYLLRGAHLDGADLHLTADFNATTPIEVIGAPTGAKNLFVNGEKASHTVDKNGIWSSEVKYAAPEIKLPGLKDLDWKYLDTLPEIKSSYDDSAWVSADLPKTKNTHRPLDTPTSLYSSDYGFHTGYLIYRGHFVANGKESEFFIRTQGGSAFGSSVWLNETYLGSWTGADYAMDGNSTYKLSQLESGKNYVITVVIDNLGLDENWTVGEETMKNPRGILSYKLSGQDASAITWKLTGNLGGEDYQDKVRGPLNEGGLYAERQGFHQPQPPSESWESGSPLEGLSKPGIGFYTAQFDLDLPKGWDVPLYFNFGNNTQAARAQLYVNGYQYGKFTGNVGPQTSFPVPEGILNYRGTNYVALSLWALESDGAKLGSFELSYTTPVLTGYGNVESPEQPKYEQRKGAY |
| INACTIVE | E200A; E298A: A. oryzae β-galactosidase double variant E200A, E298A (protein, UniProt Q2UCU3 19-1005, looked up, variant E200A E298A) Beta-galactosidase A: ASIKHRLNGFTILEHPDPAKRDLLQDIVTWDDKSLFINGERIMLFSGEVHPFRLPVPSLWLDIFHKIRALGFNCVSFYIDWALLEGKPGDYRAEGIFALEPFFDAAKEAGIYLIARPGSYINAEVSGGGFPGWLQRVNGTLRSSDEPFLKATDNYIANAAAAVAKAQITNGGPVILYQPENAYSGGCCGVKYPDADYMQYVMDQARKADIVVPFISNDASPSGHNAPGSGTGAVDIYGHDSYPLGFDCANPSVWPEGKLPDNFRTLHLEQSPSTPYSLLAFQAGAFDPWGGPGFEKCYALVNHEFSRVFYRNDLSFGVSTFNLYMTFGGTNWGNLGHPGGYTSYDYGSPITETRNVTREKYSDIKLLANFVKASPSYLTATPRNLTTGVYTDTSDLAVTPLIGDSPGSFFVVRHTDYSSQESTSYKLKLPTSAGNLTIPQLEGTLSLNGRDSKIHVVDYNVSGTNIIYSTAEVFTWKKFDGNKVLVLYGGPKEHHELAIASKSNVTIIEGSDSGIVSTRKGSSVIIGWDVSSTRRIVQVGDLRVFLLDRNSAYNYWVPELPTEGTSPGFSTSKTTASSIIVKAGYLLRGAHLDGADLHLTADFNATTPIEVIGAPTGAKNLFVNGEKASHTVDKNGIWSSEVKYAAPEIKLPGLKDLDWKYLDTLPEIKSSYDDSAWVSADLPKTKNTHRPLDTPTSLYSSDYGFHTGYLIYRGHFVANGKESEFFIRTQGGSAFGSSVWLNETYLGSWTGADYAMDGNSTYKLSQLESGKNYVITVVIDNLGLDENWTVGEETMKNPRGILSYKLSGQDASAITWKLTGNLGGEDYQDKVRGPLNEGGLYAERQGFHQPQPPSESWESGSPLEGLSKPGIGFYTAQFDLDLPKGWDVPLYFNFGNNTQAARAQLYVNGYQYGKFTGNVGPQTSFPVPEGILNYRGTNYVALSLWALESDGAKLGSFELSYTTPVLTGYGNVESPEQPKYEQRKGAY |
| INACTIVE | D258A: A. oryzae β-galactosidase variant, D258A (protein, UniProt Q2UCU3 19-1005, looked up, variant D258A) Beta-galactosidase A: ASIKHRLNGFTILEHPDPAKRDLLQDIVTWDDKSLFINGERIMLFSGEVHPFRLPVPSLWLDIFHKIRALGFNCVSFYIDWALLEGKPGDYRAEGIFALEPFFDAAKEAGIYLIARPGSYINAEVSGGGFPGWLQRVNGTLRSSDEPFLKATDNYIANAAAAVAKAQITNGGPVILYQPENEYSGGCCGVKYPDADYMQYVMDQARKADIVVPFISNDASPSGHNAPGSGTGAVDIYGHASYPLGFDCANPSVWPEGKLPDNFRTLHLEQSPSTPYSLLEFQAGAFDPWGGPGFEKCYALVNHEFSRVFYRNDLSFGVSTFNLYMTFGGTNWGNLGHPGGYTSYDYGSPITETRNVTREKYSDIKLLANFVKASPSYLTATPRNLTTGVYTDTSDLAVTPLIGDSPGSFFVVRHTDYSSQESTSYKLKLPTSAGNLTIPQLEGTLSLNGRDSKIHVVDYNVSGTNIIYSTAEVFTWKKFDGNKVLVLYGGPKEHHELAIASKSNVTIIEGSDSGIVSTRKGSSVIIGWDVSSTRRIVQVGDLRVFLLDRNSAYNYWVPELPTEGTSPGFSTSKTTASSIIVKAGYLLRGAHLDGADLHLTADFNATTPIEVIGAPTGAKNLFVNGEKASHTVDKNGIWSSEVKYAAPEIKLPGLKDLDWKYLDTLPEIKSSYDDSAWVSADLPKTKNTHRPLDTPTSLYSSDYGFHTGYLIYRGHFVANGKESEFFIRTQGGSAFGSSVWLNETYLGSWTGADYAMDGNSTYKLSQLESGKNYVITVVIDNLGLDENWTVGEETMKNPRGILSYKLSGQDASAITWKLTGNLGGEDYQDKVRGPLNEGGLYAERQGFHQPQPPSESWESGSPLEGLSKPGIGFYTAQFDLDLPKGWDVPLYFNFGNNTQAARAQLYVNGYQYGKFTGNVGPQTSFPVPEGILNYRGTNYVALSLWALESDGAKLGSFELSYTTPVLTGYGNVESPEQPKYEQRKGAY |
